Laboratory results as given in patent publication US20210253716A1 (Regeneron, published 2021).
Numbering of substitutions follows the chain as printed.

T1: full length human ACVR1 (R206H) on HEK293/BRE-luc/hACVR1-R206H-clone H2 cells (human, UniProt Q04771 21-509)
T1 sequence: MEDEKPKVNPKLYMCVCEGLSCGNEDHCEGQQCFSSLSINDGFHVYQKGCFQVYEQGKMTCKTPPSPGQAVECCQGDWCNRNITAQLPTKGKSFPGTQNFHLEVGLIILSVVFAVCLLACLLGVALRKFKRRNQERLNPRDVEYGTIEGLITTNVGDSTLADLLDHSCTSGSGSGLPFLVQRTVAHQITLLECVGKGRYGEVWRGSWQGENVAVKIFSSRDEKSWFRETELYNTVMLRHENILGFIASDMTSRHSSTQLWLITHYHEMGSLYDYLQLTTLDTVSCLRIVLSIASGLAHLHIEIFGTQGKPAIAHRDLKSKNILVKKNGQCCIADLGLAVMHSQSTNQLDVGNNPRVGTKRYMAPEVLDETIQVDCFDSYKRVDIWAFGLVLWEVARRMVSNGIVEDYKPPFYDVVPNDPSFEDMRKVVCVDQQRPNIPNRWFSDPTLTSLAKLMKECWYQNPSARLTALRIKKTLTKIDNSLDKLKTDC

T2: human ACVR1 extracellular domain expressed with a C-terminal myc-myc-hexahistidine tag (human)
T2 construct: also called hACVR1-MMH
T2 chain: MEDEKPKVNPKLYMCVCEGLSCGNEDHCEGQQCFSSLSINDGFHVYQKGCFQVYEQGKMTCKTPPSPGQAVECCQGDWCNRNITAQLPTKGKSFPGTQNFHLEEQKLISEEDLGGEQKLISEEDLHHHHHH

T3: human ACVR1 extracellular domain expressed with a C-terminal mouse IgG2a Fc tag (human)
T3 construct: also called hACVR1-mFc
T3 chain: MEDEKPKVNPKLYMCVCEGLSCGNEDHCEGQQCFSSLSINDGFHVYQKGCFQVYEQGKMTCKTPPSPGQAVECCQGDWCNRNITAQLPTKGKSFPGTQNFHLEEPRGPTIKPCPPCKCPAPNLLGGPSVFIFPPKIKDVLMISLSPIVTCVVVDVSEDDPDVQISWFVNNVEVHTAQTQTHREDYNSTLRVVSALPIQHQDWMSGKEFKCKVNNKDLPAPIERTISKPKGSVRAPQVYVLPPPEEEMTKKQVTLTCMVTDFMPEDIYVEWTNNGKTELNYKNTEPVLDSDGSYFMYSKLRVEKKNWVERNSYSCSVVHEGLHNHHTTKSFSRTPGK

T4: mouse ACVR1 extracellular domain expressed with a C-terminal myc-myc-hexahistidine tag (mouse)
T4 construct: also called mACVR1-MMH; mACVR1-mmh
T4 chain: T2 chain with M1V, P10Q

B1: mAb29226 (antibody, human IgG4 S228P, kappa, V domains shown)
VH: EVQLVESGGGLVQPGRSLRLSCAASGFTFDDYGMHWVRQAPGKGLEWVSVISWNSATIDYADSVKGRFTISRDNAKNSLFLQMNSLRPEDTALYYCAKKNSLGWFFDYWGQGTLVTVSS
VL: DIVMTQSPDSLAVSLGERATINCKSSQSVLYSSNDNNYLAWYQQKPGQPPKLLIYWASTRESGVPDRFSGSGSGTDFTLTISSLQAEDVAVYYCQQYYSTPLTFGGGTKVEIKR
B2: mAb29257 (antibody, human IgG4 S228P, kappa, V domains shown)
VH: EVQLVESGGNLVQPGGSLRLSCAASGFTFSNYAMSWVRQAPGKGLEWVSGITGNGIKTYYSVSAKGRFTISRDNSKNTLFLQMNSLRAEDTAIYYCVKERGHSWFGDWFDPWGQGTLVTVSS
VL: DIVMTQTPLSSPVTLGQPASISCRSSQGLVNSDGNTYLSWLHQRPGQPPRLLIYEISNRFSGVPDRFSGSGAGTDFTLKISRVEAEDVGFYYCMQSTQFPLTFGGGTKVEIKR
B3: mAb27245 (antibody, human IgG4 S228P, kappa, V domains shown)
VH: QVQLQQWGAGLLKPSETLSLTCAVYNGSFSSYYWNWIRQPPGKGLEWLGEINHRGSTNYNPSLTSRVTISVDTSKNQFSLKLTSVTAADTAIYYCTAHTRGFLYWGQGTLVTVSS
VL: DIQMTQSPSSLSASVGDRVTITCQASQDINNYLNWYQQKPGKAPKLLIYDASNLVPGVPSRFSGTGSGTDFSFTISSLQPEDIATYYCQHYYDLPLTFGGGTTVAIRR
B4: mAb27241 (antibody, human IgG4 S228P, kappa, V domains shown)
VH: B3 VH
VL: B3 VL with N31I, K39Q, A51V, D70H, Y92D

biological target: T1, full length human ACVR1 (R206H) on …; assay: cell-based or functional assay

Question: Which “% Inhibition, BRE-luc reporter, 2 nM hBMP7” value does the source give for B1 here?
Answer: 70%

Question: And the “IC50 [M], BRE-luc reporter, 2 nM hBMP7” value?
Answer: 7.3e-10 M

Question: Which results are given for B2?
Answer: % Inhibition, BRE-luc reporter, 2 nM hBMP7: 62%; IC50 [M], BRE-luc reporter, 2 nM hBMP7: 1.4e-10 M

Question: What does the source list for B3?
Answer: % Inhibition, BRE-luc reporter, 2 nM hBMP7: 110%; IC50 [M], BRE-luc reporter, 2 nM hBMP7: 1.5e-09 M

Question: For B4, which “% Inhibition, BRE-luc reporter, 2 nM hBMP7” value is on record?
Answer: 110%

Question: And the “IC50 [M], BRE-luc reporter, 2 nM hBMP7” value?
Answer: 1.8e-09 M

Biological target: T2, human ACVR1 extracellular domain …
Assay: SPR (Biacore), mAb captured, 25 C
Experimental: (§1) Equilibrium dissociation constants (KD) for ACVR1 binding to purified anti-ACVR1 monoclonal antibodies were determined using a real-time surface plasmon resonance biosensor (SPR-Biacore), Biacore 4000. All binding studies were performed in 10 mM HEPES, 150 mM NaCl, 3 mM EDTA, and 0.05% v/v surfactant Tween-20, pH 7.4 (HBS-ET) running buffer at 25° C. and 37° C. The Biacore CM5 sensor surface was first derivatized by amine coupling with a monoclonal mouse anti-human Fc antibody (GE, #BR-1008-39 or REGN2567) to capture anti-ACVR1 monoclonal antibodies. […] ACVR1 reagents were then injected over anti-human Fc captured anti-ACVR1 monoclonal antibody surface for 2.5-3 minutes at a flow rate of 30 μL/minute, while the dissociation of monoclonal antibody bound ACVR1 reagent was monitored for 10-15 minutes in HBS-ET running buffer. Kinetic association rate constant (kₐ) and dissociation rate constant (kd) were determined by fitting the real-time sensorgrams to a 1:1 binding model using Scrubber 2.0c curve-fitting software. Binding dissociation equilibrium constants (KD) and dissociative half-lives (t½) were calculated from the kinetic rate constants as: […]

Question: Which results are given for B1?
Answer: 900 nM or 100 nM Ag Bound (RU): 57 RU; Kd: 8.27 nM; koff: 0.000937 s⁻¹; kon: 113000 M⁻¹ s⁻¹; t½: 12 min

Question: For B2, which “900 nM or 100 nM Ag Bound (RU)” value is on record?
Answer: 47 RU

Question: And the Kd?
Answer: 8.43 nM

Question: What about the koff of the same binder?
Answer: 0.000521 s⁻¹

Question: And the kon?
Answer: 61800 M⁻¹ s⁻¹

Question: What about the t½ of the same binder?
Answer: 22 min

Question: What does the source list for B3?
Answer: 900 nM or 100 nM Ag Bound (RU): 35 RU; Kd: 8.01 nM; koff: 0.000207 s⁻¹; kon: 25800 M⁻¹ s⁻¹; t½: 56 min

Question: Which “900 nM or 100 nM Ag Bound (RU)” value does the source give for B4 here?
Answer: 34 RU

Question: And the Kd?
Answer: 6.52 nM

Question: What about the koff of the same binder?
Answer: 0.000123 s⁻¹

Question: And the kon?
Answer: 18900 M⁻¹ s⁻¹

Question: And the t½?
Answer: 94 min

Biological target: T3, human ACVR1 extracellular domain …
Assay: SPR (Biacore), mAb captured, 25 C
Experimental: as §1

Question: With B1 as the binder, how does the “100 nM Ag Bound (RU)” value read?
Answer: 188 RU

Question: What about the Kd of the same binder?
Answer: 0.767 nM

Question: And the koff?
Answer: 0.000161 s⁻¹

Question: And the kon?
Answer: 210000 M⁻¹ s⁻¹

Question: And the t½?
Answer: 72 min

Question: B2 was tested. Which “100 nM Ag Bound (RU)” value did it give?
Answer: 157 RU

Question: What about the Kd of the same binder?
Answer: 0.936 nM

Question: And the koff?
Answer: 0.000121 s⁻¹

Question: What about the kon of the same binder?
Answer: 129000 M⁻¹ s⁻¹

Question: And the t½?
Answer: 95 min

Question: For B3, which “100 nM Ag Bound (RU)” value is on record?
Answer: 145 RU

Question: What about the Kd of the same binder?
Answer: 1.34 nM

Question: And the koff?
Answer: 5.06e-05 s⁻¹

Question: And the kon?
Answer: 38100 M⁻¹ s⁻¹

Question: And the t½?
Answer: 228 min

Question: How did the “100 nM Ag Bound (RU)” value turn out when B4 was run?
Answer: 135 RU

Question: What about the Kd of the same binder?
Answer: 0.918 nM

Question: And the koff?
Answer: 3.2e-05 s⁻¹

Question: And the kon?
Answer: 34900 M⁻¹ s⁻¹

Question: What about the t½ of the same binder?
Answer: 361 min

Biological target: T4, mouse ACVR1 extracellular domain …
Assay: SPR (Biacore), mAb captured, 25 C
Experimental: as §1

Question: B1 was tested. Which “900 nM or 100 nM Ag Bound (RU)” value did it give?
Answer: 2 RU

Question: Does B1 bind?
Answer: no binding (tested: 900 nM or 100 nM)

Question: B2 was tested. Which “900 nM or 100 nM Ag Bound (RU)” value did it give?
Answer: -2 RU

Question: What does the source list for B3?
Answer: 900 nM or 100 nM Ag Bound (RU): 1 RU; binding result: no binding (tested: 900 nM or 100 nM)

Question: Which results are given for B4?
Answer: 900 nM or 100 nM Ag Bound (RU): 1 RU; binding result: no binding (tested: 900 nM or 100 nM)

Biological target: T2, human ACVR1 extracellular domain …
Assay: SPR (Biacore), mAb captured, 37 C
Experimental: as §1

Question: Which “900 nM or 100 nM Ag Bound (RU)” value does the source give for B1 here?
Answer: 68 RU

Question: And the Kd?
Answer: 25 nM

Question: And the koff?
Answer: 0.00456 s⁻¹

Question: What about the kon of the same binder?
Answer: 182000 M⁻¹ s⁻¹

Question: And the t½?
Answer: 2.5 min

Question: What does the source list for B2?
Answer: 900 nM or 100 nM Ag Bound (RU): 64 RU; Kd: 21.4 nM; koff: 0.00326 s⁻¹; kon: 153000 M⁻¹ s⁻¹; t½: 3.5 min

Question: For B3, which “900 nM or 100 nM Ag Bound (RU)” value is on record?
Answer: 66 RU

Question: What about the Kd of the same binder?
Answer: 32.2 nM

Question: What about the koff of the same binder?
Answer: 0.00173 s⁻¹

Question: And the kon?
Answer: 53900 M⁻¹ s⁻¹

Question: And the t½?
Answer: 7 min

Question: B4 was tested. Which “900 nM or 100 nM Ag Bound (RU)” value did it give?
Answer: 66 RU

Question: And the Kd?
Answer: 19.7 nM

Question: And the koff?
Answer: 0.000852 s⁻¹

Question: And the kon?
Answer: 43200 M⁻¹ s⁻¹

Question: And the t½?
Answer: 14 min

Biological target: T3, human ACVR1 extracellular domain …
Assay: SPR (Biacore), mAb captured, 37 C
Experimental: as §1

Question: Which results are given for B1?
Answer: 100 nM Ag Bound (RU): 212 RU; Kd: 1.53 nM; koff: 0.000521 s⁻¹; kon: 340000 M⁻¹ s⁻¹; t½: 22 min

Question: Which “100 nM Ag Bound (RU)” value does the source give for B2 here?
Answer: 201 RU

Question: What about the Kd of the same binder?
Answer: 1.58 nM

Question: And the koff?
Answer: 0.000495 s⁻¹

Question: What about the kon of the same binder?
Answer: 314000 M⁻¹ s⁻¹

Question: What about the t½ of the same binder?
Answer: 23 min

Question: For B3, which “100 nM Ag Bound (RU)” value is on record?
Answer: 222 RU

Question: What about the Kd of the same binder?
Answer: 3.65 nM

Question: And the koff?
Answer: 0.000335 s⁻¹

Question: And the kon?
Answer: 91700 M⁻¹ s⁻¹

Question: What about the t½ of the same binder?
Answer: 34 min

Question: Which “100 nM Ag Bound (RU)” value does the source give for B4 here?
Answer: 216 RU

Question: And the Kd?
Answer: 2.44 nM

Question: And the koff?
Answer: 0.000201 s⁻¹

Question: And the kon?
Answer: 82200 M⁻¹ s⁻¹

Question: What about the t½ of the same binder?
Answer: 57 min

Biological target: T4, mouse ACVR1 extracellular domain …
Assay: SPR (Biacore), mAb captured, 37 C
Experimental: as §1

Question: B1 was tested. Which “900 nM or 100 nM Ag Bound (RU)” value did it give?
Answer: 2 RU

Question: How did the “900 nM or 100 nM Ag Bound (RU)” value turn out when B2 was run?
Answer: 2 RU

Question: For B3, which “900 nM or 100 nM Ag Bound (RU)” value is on record?
Answer: 2 RU

Question: Which “900 nM or 100 nM Ag Bound (RU)” value does the source give for B4 here?
Answer: 2 RU

biological target: T1, full length human ACVR1 (R206H) on …; assay: flow cytometry, 70 nM antibody, HEK293/hACVR1-R206H cells
Experimental: Cells were fixed using BD CytoFix™ (Becton Dickinson, #554655) and analyzed on either Hypercyt® or IQue® Flow Cytometers (Intellicyt®). Unstained and secondary antibody alone controls were also tested for all cell lines. The results were analyzed using ForeCyt® (IntelliCyt®) software to determine the geometric means of fluorescence for viable cells and binding ratios were calculated by normalizing the geometric mean value of the test condition by the geometric mean value of the corresponding unstained cells.

Question: How did the “MFI - Normalized to Unstained Control” value turn out when B1 was run?
Answer: 1900 fold

Question: For B2, which “MFI - Normalized to Unstained Control” value is on record?
Answer: 1660 fold

Question: How did the “MFI - Normalized to Unstained Control” value turn out when B3 was run?
Answer: 1660 fold

Question: For B4, which “MFI - Normalized to Unstained Control” value is on record?
Answer: 1160 fold
